Percentage of Positive Cells data for one molecule are collected here from US20260078197A1.

This test concerns the target Macaca fascicularis (crab-eating macaque) TFR1 expressed on CHO-S cells (Macaca fascicularis (crab-eating macaque)). The experiment in a line: flow cytometry on CHO-S-fasTFR1 cells; anti-hIgG-Fc Alexa Fluor 647 secondary.

Sequence of Macaca fascicularis (crab-eating macaque) TFR1 expressed on CHO-S cells (Macaca fascicularis (crab-eating macaque)) (chain, as listed by the source limits assumed): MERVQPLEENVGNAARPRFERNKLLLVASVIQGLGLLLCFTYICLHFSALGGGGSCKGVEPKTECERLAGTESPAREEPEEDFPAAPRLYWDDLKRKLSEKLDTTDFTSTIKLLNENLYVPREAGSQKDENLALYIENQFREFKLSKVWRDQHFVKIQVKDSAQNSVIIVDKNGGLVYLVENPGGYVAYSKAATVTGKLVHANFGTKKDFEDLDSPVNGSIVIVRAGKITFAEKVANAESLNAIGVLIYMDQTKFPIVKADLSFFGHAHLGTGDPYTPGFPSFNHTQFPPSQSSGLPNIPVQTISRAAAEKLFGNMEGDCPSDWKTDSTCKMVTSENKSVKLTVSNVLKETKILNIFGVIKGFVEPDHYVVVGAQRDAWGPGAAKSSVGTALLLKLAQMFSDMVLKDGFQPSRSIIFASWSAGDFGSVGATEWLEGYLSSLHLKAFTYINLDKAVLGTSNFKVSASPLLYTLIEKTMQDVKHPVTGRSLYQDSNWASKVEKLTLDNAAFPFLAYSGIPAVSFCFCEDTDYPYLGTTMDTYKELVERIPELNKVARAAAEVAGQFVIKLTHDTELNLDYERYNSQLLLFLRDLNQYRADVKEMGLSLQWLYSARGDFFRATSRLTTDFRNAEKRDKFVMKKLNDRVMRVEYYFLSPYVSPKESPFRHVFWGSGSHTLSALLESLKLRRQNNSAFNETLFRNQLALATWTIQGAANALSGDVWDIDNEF

B1: 24C9 (antibody, human IgG1, V domains shown)
VH: EVQLVQSGGGVVQPGRSLRLSCAASGFTLSSYGMYWVRQAPGKGREWVAFIRFDESKKYYADSVKGRFTISRDNSKNTLYLQMNSLRAEDTAVYYCARDGEGGYCTNGVCHGLDVWGQGTTVTVSS
B1 came in with a Percentage of Positive Cells of 0.35%.
